Test results published in paper PMC4396695, “Structure of the Ribosomal Oxygenase OGFOD1 Provides Insights into the Regio- and Stereoselectivity of Prolyl Hydroxylases” (Structure(London, England:1993), 2015).

Molecular target: the molecule itself
Assay: native gel or EMSA; non-denaturing PAGE of OGFOD1 and of Tpa1p, each run alone; conditions not given

B1: Tpa1p (termination and polyadenylation protein 1) (enzyme, S. cerevisiae, UniProt P40032 1-644, looked up)
chain: MKRKTAEVKGEKERNSKQISLEEDKIKGMFNPKIWDKTFQDGLKKEIEDSQPYNWGTIHELVNDDLLRAVRKEIETEIHFTKKETDIYRVNQSGDLANLSGLDWDDLSRLPNLFKLRQILYSKQYRDFFGYVTKAGKLSGSKTDMSINTYTKGCHLLTHDDVIGSRRISFILYLPDPDRKWKSHYGGGLRLFPSILPNVPHSDPSAKLVPQFNQIAFFKVLPGFSFHDVEEVKVDKHRLSIQGWYHIPQVGEEGYIPGEEEAWVRNNTSTLAQIESNVLEDFEFPKDERNILSFHEVKHFEKMLKGDAGAKTDNTPKESMTSVISDSVKLSEAEFTYLSQYISPEHLSSKGIEKLQKQFVENSSLQIESFLNDDKSELLKKVIKQKELEQECPYHSKDVKAPWKTAIPPHKARYLYIDGKEYRNFQTEADILEALNNNDLPNFQFTKDAIKIISDASGNSRENNFDAELALIDLAVFHKSTIFKKYLALLTSLCPVSEQILIRRFRPGMDFTLATKCRFNELLKSNPDIIDAVLEGTLCLTPSAGWESGELGGYELYMMDDDEDNKQYLKEDVEDASVYRADDSGDSVLINDPPAWNTFNLVLRDESVLEFVKYVSWSAKSSRWDVKMKWDVKSCDEDGQEDEA
notes: Tpa1p, Saccharomyces cerevisiae, full length, 644 aa, 74 kDa; plasmid pNIC28_Tpa1p; source: E. coli BL21(DE3), purified (HisTrap, Superdex 200, MonoQ)
  stoichiometry N: 2
